How the values were obtained:
Assay type in all cases: biochemical, Escherichia coli
purified protein [1] = substrate: N[C@@H](CCOC(=O)CCC(=O)O)C(=O)O; experiment: purified protein; conditions: pyridoxal-5'-phosphate
[2] = substrate: N[C@@H](CO)C(=O)O; experiment: Michaelis-Menten kinetics of purified enzyme, DTNB assay (KM)
[3] = substrate: CC(=O)SCCNC(=O)CCNC(=O)[C@H](O)C(C)(C)COP(=O)(O)OP(=O)(O)OC[C@H]1O[C@@H](n2cnc3c(N)ncnc32)[C@H](O)[C@@H]1OP(=O)(O)O; experiment: Michaelis-Menten kinetics of purified enzyme, DTNB assay of released CoA (KM)
[4] = substrate: O=CO; experiment: Michaelis-Menten kinetics of purified enzyme, LDH-coupled NADH assay (KM); conditions: glycyl radical (activated by PFL-AE)
[5] = substrate: CCC(=O)SCCNC(=O)CCNC(=O)[C@H](O)C(C)(C)COP(=O)(O)OP(=O)(O)OC[C@H]1O[C@@H](n2cnc3c(N)ncnc32)[C@H](O)[C@@H]1OP(=O)(O)O; experiment: as above; conditions: glycyl radical (activated by PFL-AE)
purified protein [6] = substrate: CCC(=O)SCCNC(=O)CCNC(=O)[C@H](O)C(C)(C)COP(=O)(O)OP(=O)(O)OC[C@H]1O[C@@H](n2cnc3c(N)ncnc32)[C@H](O)[C@@H]1OP(=O)(O)O; experiment: purified protein; conditions: glycyl radical (activated by PFL-AE)

B1: cystathionine γ-synthase (MetB) (Escherichia coli K-12) (protein)
chain: MTRKQATIAVRSGLNDDEQYGCVVPPIHLSSTYNFTGFNEPRAHDYSRRGNPTRDVVQRALAELEGGAGAVLTNTGMSAIHLVTTVFLKPGDLLVAPHDCYGGSYRLFDSLAKRGCYRVLFVDQGDEQALRAALAEKPKLVLVESPSNPLLRVVDIAKICHLAREVGAVSVVDNTFLSPALQNPLALGADLVLHSCTKYLNGHSDVVAGVVIAKDPDVVTELAWWANNIGVTGGAFDSYLLLRGLRTLVPRMELAQRNAQAIVKYLQTQPLVKKLYHPSLPENQGHEIAARQQKGFGAMLSFELDGDEQTLRRFLGGLSLFTLAESLGGVESLISHAATMTHAGMAPEARAAAGISETLLRISTGIEDGEDLIADLENGFRAANKG
Purified protein [1]
  Km: 600 ± 80 µM

B2: serine acetyltransferase (CysE) (Escherichia coli K-12) (protein)
chain: MSCEELEIVWNNIKAEARTLADCEPMLASFYHATLLKHENLGSALSYMLANKLSSPIMPAIAIREVVEEAYAADPEMIASAACDIQAVRTRDPAVDKYSTPLLYLKGFHALQAYRIGHWLWNQGRRALAIFLQNQVSVTFQVDIHPAAKIGRGIMLDHATGIVVGETAVIENDVSILQSVTLGGTGKSGGDRHPKIREGVMIGAGAKILGNIEVGRGAKIGAGSVVLQPVPPHTTAAGVPARIVGKPDSDKPSMDMDQHFNGINHTFEYGDGI
[2]
  Km: 800 ± 300 µM
[3]
  Km: 600 ± 200 µM

B3: TdcE (2-ketobutyrate formate-lyase) (Escherichia coli K-12) (protein)
chain: MKVDIDTSDKLYADAWLGFKGTDWKNEINVRDFIQHNYTPYEGDESFLAEATPATTELWEKVMEGIRIENATHAPVDFDTNIATTITAHDAGYINQPLEKIVGLQTDAPLKRALHPFGGINMIKSSFHAYGREMDSEFEYLFTDLRKTHNQGVFDVYSPDMLRCRKSGVLTGLPDGYGRGRIIGDYRRVALYGISYLVRERELQFADLQSRLEKGEDLEATIRLREELAEHRHALLQIQEMAAKYGFDISRPAQNAQEAVQWLYFAYLAAVKSQNGGAMSLGRTASFLDIYIERDFKAGVLNEQQAQELIDHFIMKIRMVRFLRTPEFDSLFSGDPIWATEVIGGMGLDGRTLVTKNSFRYLHTLHTMGPAPEPNLTILWSEELPIAFKKYAAQVSIVTSSLQYENDDLMRTDFNSDDYAIACCVSPMVIGKQMQFFGARANLAKTLLYAINGGVDEKLKIQVGPKTAPLMDDVLDYDKVMDSLDHFMDWLAVQYISALNIIHYMHDKYSYEASLMALHDRDVYRTMACGIAGLSVATDSLSAIKYARVKPIRDENGLAVDFEIDGEYPQYGNNDERVDSIACDLVERFMKKIKALPTYRNAVPTQSILTITSNVVYGQKTGNTPDGRRAGTPFAPGANPMHGRDRKGAVASLTSVAKLPFTYAKDGISYTFSIVPAALGKEDPVRKTNLVGLLDGYFHHEADVEGGQHLNVNVMNREMLLDAIEHPEKYPNLTIRVSGYAVRFNALTREQQQDVISRTFTQAL
[4]
  Km: 20000 ± 3000 µM
  Vmax: 1.8 µmol/min/mg
  kcat: 2.7 ± 0.1 s⁻¹
[5]
  Km: 520 ± 81 µM
  Vmax: 2.1 µmol/min/mg
  kcat: 3.2 ± 0.2 s⁻¹

B4: pyruvate formate-lyase (PFL, PflB) (Escherichia coli K-12) (protein)
chain: SELNEKLATAWEGFTKGDWQNEVNVRDFIQKNYTPYEGDESFLAGATEATTTLWDKVMEGVKLENRTHAPVDFDTAVASTITSHDAGYINKQLEKIVGLQTEAPLKRALIPFGGIKMIEGSCKAYNRELDPMIKKIFTEYRKTHNQGVFDVYTPDILRCRKSGVLTGLPDAYGRGRIIGDYRRVALYGIDYLMKDKLAQFTSLQADLENGVNLEQTIRLREEIAEQHRALGQMKEMAAKYGYDISGPATNAQEAIQWTYFGYLAAVKSQNGAAMSFGRTSTFLDVYIERDLKAGKITEQEAQEMVDHLVMKLRMVRFLRTPEYDELFSGDPIWATESIGGMGLDGRTLVTKNSFRFLNTLYTMGPSPEPNMTILWSEKLPLNFKKFAAKVSIDTSSLQYENDDLMRPDFNNDDYAIACCVSPMIVGKQMQFFGARANLAKTMLYAINGGVDEKLKMQVGPKSEPIKGDVLNYDEVMERMDHFMDWLAKQYITALNIIHYMHDKYSYEASLMALHDRDVIRTMACGIAGLSVAADSLSAIKYAKVKPIRDEDGLAIDFEIEGEYPQFGNNDPRVDDLAVDLVERFMKKIQKLHTYRDAIPTQSVLTITSNVVYGKKTGNTPDGRRAGAPFGPGANPMHGRDQKGAVASLTSVAKLPFAYAKDGISYTFSIVPNALGKDDEVRKTNLAGLMDGYFHHEASIEGGQHLNVNVMNREMLLDAMENPEKYPQLTIRVSGYAVRFNSLTKEQQQDVITRTFTQSM
Purified protein [6]
  Km: 830 ± 580 µM
  Vmax: 1.1 µmol/min/mg
  kcat: 1.7 ± 0.9 s⁻¹
[4]
  Km: 69000 ± 11000 µM
  Vmax: 0.59 µmol/min/mg
  kcat: 0.9 ± 0.05 s⁻¹

Reference: article PMC7476758, “Underground isoleucine biosynthesis pathways in E. coli” (eLife, 2020)
